Experimental data published in a protein production outcome set (Wang et al. 2014).

Assay: label from the status in PepcDB records

| Sequence | protein production |
| --- | --- |
| MSQRKYFGTDGVRGEVGGPVINAAFALRLGYAAGRVLAREHREHASGRGRNRPQVVIGKDTRISGYMLESALEAGLSAAGIDVLLAGPVPTPAVAYLTRTLRLAAGIVISASHNPYQDNGIKFFSAHGMKLPDDIEAAIEQALDEPLGCVGSEELGRARRMADAQGRYIEFCKSTFPHDLDLNGLKLVVDAAHGAAYNVAPHVFRELGAEVHAIGVSPDGFNINKGVGALHPESLAEEVRARGADLGIALDGDADRLQMVDGTGRIYNGDELLYAIVRERMQRGPVAGVVGTLMTNYGLERQLQQIGVGFERANVGDRYVLEQMQARGWLYGGESSGHLLCLDCHTTGDGTIAALQVLTALRRADATLAEWVADLRMYPQKMINVPLAPGLDWKTHDGLARARGAVEAELAGRGRVLIRASGTEPKLRLMVEAEDEALAQASAQKLADSLGA | failed |
| MSLTVKDILDAIQSPDSTPADIAALPLPESYRAITVHKDETEMFAGLETRDKDPRKSIHLDDVPVPELGPGEALVAVMASSVNYNSVWTSIFEPLSTFGFLERYGRVSDLAKRHDLPYHVIGSDLAGVVLRTGPGVNAWQAGDEVVAHCLSVELESSDGHNDTMLDPEQRIWGFETNFGGLAEIALVKSNQLMPKPDHLSWEEAAAPGLVNSTAYRQLVSRNGAGMKQGDNVLIWGASGGLGSYATQFALAGGANPICVVSSPQKAEICRAMGAEAIIDRNAEGYRFWKDENTQDPKEWKRFGKRIRELTGGEDIDIVFEHPGRETFGASVFVTRKGGTITTCASTSGYMHEYDNRYLWMSLKRIIGSHFANYREAWEANRLIAKGRIHPTLSKVYSLEDTGQAAYDVHRNLHQGKVGVLCLAPEEGLGVRDREKRAQHLDAINRFRNEGHHHHHH | not failed |
| MGVHIDSVVFSRAGALLTLKDEAEISEIRVYSESEEIASQEIGKNKDNVFVSFNWDPEARYRFEVITGSGASGTIEAYAPSKPALKKEYTIELEDVTPGDIEKTSTNVEGALKFSPDSEYLAIGTNGGSLKLIKVATGEKVWEKQLVKGIADARIADIEFSEDGKRLFVGEESPDAFLYCFDLEGTEIWKYGAGKELGSDLKYMPAMKKIKLDSEGNIYVAASRACGYIGEKYKYLARIYSFDPEGNLRWKFPESEYMDSGVTWIDATPDGKYAVFGTTCFTETEKWREGTVHALNGNTGQEHWSYKIQPVEPFFDYSAIWYSTQITPDGEKLITMTSDGRAFLFNNSRIIETGTPEITWQQNISTPIVVSGVPIYGSANYAYIVNDTLIFSIGSTFSKDKNKDAPFEHPSGNSLFAYDYDGNLLWKWRVDGYAGECAVNDRYLVIPLAQNLVTEDRSVHGVYVFDASKSGGASSRLIQTYNTEGITVSADISPDGRYIAALEAPSRLDDGTVLGEYKVHILTLEHHHHHH | not failed |
| MEDKKEYAKYAGFRIRFAAMLIDVVILVILFSIPVGFIYGQEYWQGEKLIYGFWDVLINYVIPAILTIFFWIKFLGTPGKMILKLRVVDEHTGGTLSIGKAIGRYFAYILSILPVFLGFFWIGFSDKKQGWHDILAGTVVIRSESKGPFEFRS | failed |
| MAKKENQQPDNHVGEVVSRSEQFIEKNMTKIGLVILGVFIIVAGIFAYKRFVSEPKAREAAAKVYLAEDKFIQELDSAALNGNGANEMGLLTVIKKYSGSDASNLAKAYAGICYYNLGEYQKAIDHLKGFSSKENMVAPSITRLIGDCYVQLKKYEEAVGYFEKAAAAASNDAITPGCLIKAGRVYEELKQYDKALAAYKQVKEKYYTSMEANTVEADIIRVKTKGAK | failed |
| MLPASNGSVSLPQPKEWENGCRLGFIHMAAKGIVQVISAQVLSGTTLTLGWLGYVPLLIWAVSRVRWVELFTDRRRQHLLFGTVFCLFALWLVRRDFDTGVSYHFIGMTAVTLLLDWPLAVLGGFMAQLGLLALGRQDLAALGVNGLMLIGLPVLITEVCAIVVERAQPRNLFVYIFCSGFFPAALTVLVCVPAALGVLWLDGRFALPEWLSDFVGYLWLMMFPEAFINGMVISALVVFCPEWLETFNRTRYLQAPWKEDER | failed |
| MLFGGNRNKMLKTIITSAITYSSTAIDLLIILMLFFAKIKDKKGIRDIYIGQFLGSDVLILVSLFFAFILHYVPDKRLLGLLGIIPIFLGLKALIFGDSDGEKMANKELNNNNNKMNLIKTLMFITIVSCGADNIGLFVPYFISLTPLNLVITLIVFLIMIFLLVFVAQKLANVPTIGEVLEKYSRWFIGFVYIFIGGSVLIENGSIQFIINLFK | failed |
| MVQLDQRVRFKSATSIISIEMWERFSFYGMQALLVYYLYFDVAAGGLGLDQTQATGLVGVYGALLYLCCWAGGWVSDRVLGAEKTLLGGAISVTIGHLVLAGLGGKIGLAIGLGCIAIGSGFVKTAAITVLGSRHGEQEGDAKADPAFQLFYLGINVGALLGPLLTGWLSSRYSFEMGFGAAAVLMIGGLGIYAALRKPMLQSFPLEVKKALLRAQNPAEKHVISTAFAAVAVLCGVLLYLLLTETVSADQLAGALLLVTIGAALWLIIQPLRHPQVSSEEKRKVLAFIPIFVCSTAFWAVQAQTYGVLAVYSQERVDRMVGDFEIPAAWSQSLNPFFILALSIPISLWFMRGSRAPRVKIGISIGVIIAGSGLLVLIPFVGMPLAPVWVLPLSVFLISLGELFIGPGGMAATAHHAPRIFATRFSALYFLTLAIGMSIAGNVSKFYDPTNHTSELRYFAVFGISIIVIGVGSLMVAKKVG | failed |
| MSSEEDKITRISIEPEKQTLLDHHTEKHFTAGEIVRDIIIGVSDGLTVPFALAAGLSGANASSSIVLTAGIAEVAAGAISMGLGGYLAAKSEEDHYAREMKREQEEIVAVPETEAAEVAEILAQYGIEPHEYSPVVNALRKNPQAWLDFMMRFELGLEKPDPKRALQSAFTIAIAYVLGGFIPLLPYMLIPHAMDAVVASVVITLFALFIFGYAKGHFTGSKPLRSAFETAFIGAIASAAAFCLAKVVQH | failed |
| MVLPSSHRILVVDDNAVTRYSVRRVLEHHQFVVEEAGTGGEGLVRLAAEAFAAVVLDVNLPDMSGFDIVRTLRAEPRTALLPVVHVSAASIATGDMITGLDAGADAYLIHPVDPNVLVATLRTLLRARNAEEALRLSEARFREIFEHIGAPIAVVDAQLHTQEANAAFQRLIGSATPCEAINVPGLDQCATVQALTAALGRRERWSGTLSILRDGAVRETEWRVSPYREPDLGLLFVEDVTEQRLREREQRQELDTATSELAHQIAERQRTEIQLLQAQKMEALGKLTGGIAHDFNNLLTSIISGLDMIQLAVESNRIERVPRLAEIATGSAHRAAALTQRMLAFARKQSLDAQPFDVNARVRSLEDMLRRSIGENIALELQLAEAPLVAIADANQLENVVLNLVINARDALQGHGTIRIQSAPHTAYNDPELEDGDYVAVNVIDDGSGIDPAILSQVFEPFFTTKPIGEGTGLGLSMTYGFARQSGGTARITSTLGSGTTVALLLPRGLTVGEALPPPPPNAPRGRSQRILLVDDTDVVRMMVSEVLSDAGYHVIEAENADGALAQLRADAQIDMVVSDVGLPGMNGRDMADVARDLRPGLPILFITGYAENAATRQEFLAEGMALLPKPFSLNDLLNTVSRMLG | failed |
| HTETGNIWTHLLGFVLFLFLGILTMLRPNMYFMAPLQEKVVFGMFFLGAVLCLSFSWLFHTVYCHSEKVSRTFSKLDYSGIALLIMGSFVPWLYYSFYCSPQPRLIYLSIVCVLGISAIIVAQWDRFATPKHRQTRAGVFLGLGLSGVVPTMHFTIAEGFVKATTVGQMGWFFLMAVMYITGAGLYAARIPERFFPGKFDIWFQSHQIFHVLVVAAAFVHFYGVSNLQEFRYGLEGGCTDDTLL | failed |
| MESVTFEDVAVEFIQEWALLDSARRSLCKYRMLDQCRTLASRGTPPCKPSCVSQLGQRAEPKATERGILRATGVAWESQLKPEELPSMQDLLEEASSRDMQMGPGLFLRMQLVPSIEERETPLTREDRPALQEPPWSLGCTLPLLSLLLPSCPEPPLVLLDSSSAPDRHLGSTLDTEARGIP | failed |
| MEYKPIRKVVSGNYAAAYAALHARVQVVAAYPITPQTSIIEKIAEFIANGEADIQYIPVESEHSAMAACIGASATGARTFTATSAQGLALMHEMLHWAAGARLPIVMVDVNRAMAPPWSVWDDQTDSLSQRDTGWMQFYAENNQEVYDGVLMAYKVAETVNVPAMVVESAFILSHTYDVVEMIPQELVDEFLPPRKPLYSLANFDEPIAVGALATPNDYYEFRYKLAKAHEEAKKVIKEVGKEFGERFGRDY | failed |
| MPNTIRLHRVLSAPPERVYRAFLDPLALAKWLPPEGFVCKVLEHDARVGGAYKMEFLAFASGQKHAFGGRYLELVPGERIRYTDRFDDAGLPGDMITTITLAPLSCGADLSIVQEGIPDAIPPENCYLGWQQSLKQLAALVEPDMPGLEHHHHHH | not failed |
